This test addresses T1, GST-MKK7 (Homo sapiens, UniProt O14733, Q133P/Q94H).
T1 construct: made in house; host or cells: E. coli BL21
T1 sequence (O14733 1-401 Q94H/Q133P limits assumed): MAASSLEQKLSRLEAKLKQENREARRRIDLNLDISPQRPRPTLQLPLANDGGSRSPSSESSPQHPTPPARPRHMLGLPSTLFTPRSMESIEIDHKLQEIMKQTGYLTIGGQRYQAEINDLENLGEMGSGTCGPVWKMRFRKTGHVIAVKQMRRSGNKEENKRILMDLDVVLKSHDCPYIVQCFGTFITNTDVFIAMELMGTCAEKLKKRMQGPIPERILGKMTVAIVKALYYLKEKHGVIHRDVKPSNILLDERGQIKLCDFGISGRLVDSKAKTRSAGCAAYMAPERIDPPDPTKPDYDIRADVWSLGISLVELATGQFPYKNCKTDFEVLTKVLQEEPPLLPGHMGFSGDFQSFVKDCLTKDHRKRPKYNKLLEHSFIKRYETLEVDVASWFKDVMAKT
Description: In vitro pull-down with purified proteins: His6/T7-tagged proteins binding to GST-MKK7. The note with it: JIP1 used under non-saturating conditions, read-out: half maximum binding (HMB) value for binding to GST-MKK7. The source says: Protein levels are shown (bottom). b, g, Coomassie brilliant blue staining (CS) showing purity of the proteins used in (c) and (d, e), respectively. c, In vitro pull-down assays with purified proteins showing direct interaction between His6/T7-Gadd45β (His6disclosed as SEQ ID NO: 46) and GST-MKK7. Precipitated GST proteins and bound His6/T7-tagged proteins(His6 disclosed as SEQ ID NO: 46) were visualized by CS and Western blotting (WB) with anti-T7 antibodies, respectively. Inputs of His6/T7-tagged proteins (His6 disclosed as SEQ ID NO: 46) are indicated. The fraction of His6/T7-Gadd45β (His6 disclosed as SEQ ID NO: 46) and His6/T7-JIP1 (His6 disclosed as SEQ ID NO: 46) binding to GST-MKK7 (expressed as arbitrary units [a.u.]; left) was calculated relatively to a standard curve generated with known protein concentrations^19. d, e, Kinase assays showing specific inhibition of active MKK7 by purified GST-Gadd45β and His6-Gadd45β (His6 disclosed as SEQ ID NO: 46), in vitro. […]
Interaction of endogenous Gadd45β and MKK7 was detected readily (FIG. 28a). […]
GST precipitations with in vitro-translated proteins or purified proteins (FIG. 26-30), and kinase assays were performed. […] MKK7 phosphorylation was monitored by performing immunoprecipitations with anti-P-MKK7 antibodies (developed at Cell Signaling) followed by Western blots with anti-total MKK7 antibodies. […]

The record followed here is US7326418B2, “Identification of novel factors that block programmed cell death or apoptosis by targeting JNK” (University of Chicago, priority 2001, dated 2008).

B1: Gadd45β: purified recombinant His6-tagged Gadd45β protein; also used generically for the recombinant Gadd45β proteins (protein, UniProt O75293 1-160, looked up)
Growth arrest and DNA …: MTLEELVACDNAAQKMQTVTAAVEELLVAAQRQDRLTVGVYESAKLMNVDPDSVVLCLLAIDEEEEDDIALQIHFTLIQSFCCDNDINIVRVSGMQRLAQLLGEPAETQGTTEARDLHCLLVTNPHTDAWKSHGLVEVASYCEESRGNNQWVPYISLQER
modifications: His6 tag
notes: purified recombinant His6-tagged Gadd45β protein; also used generically for the recombinant Gadd45β proteins
For B1, the Kd was around 390 nM.
